Molecular target: T1, CT83 peptide on HLA-A2 (human)
T1 peptide: KLVELEHTL
Assay: killing

B1: A2-CT83 TCR (TCR, V domains shown)
Valpha: GEDVEQSLFLSVREGDSSVINCTYTDSSSTYLYWYKQEPGAGLQLLTYIFSNMDMKQDQRLTVLLNKKDKHLSLRIADTQTGDSAIYFCAEKSGYSGAGSYQLTFGKGTKLSVIP
Vbeta: SAVISQKPSRDICQRGTSLTIQCQVDSQVTMMFWYRQQPGQSLTLIATANQGSEATYESGFVIDKFPISRPNLTFSTLTVSNMSPEDSSIYLCSVQDSEAFFGQGTRLTVV
B1: recognises.

Source: patent US20240082304A1 (published 2024)
